Reference: publication PMC11257983 (2024)

B1: Flag-CNK^2–549 [Drosophila] / V5-KSR [Drosophila] (parent)
chain 1: MSSNNNAPASAPDTGSTNANDPISGSLSVDSNLVIIQDMIDLSANHLEGLRTQCAISSTLTQQEIRCLESKLVRYFSELLLAKMRLNERIPANGLVPHTTGNELRQWLRVVGLSQGTLTACLARLTTLEQSLRLSDEEIRQLLADSPSQREEEELRRLTRAMQNLRKCMESLESGTAASNNDPEQWHWDSWDRPTHIHRGSVGNIGLGNNSTASPRTHHRQHGVKGKNSALANSTNFKSGRQSPSATEELNSTQGSQLTLTLTPSPPNSPFTPSSGLSSSLNGTPQRSRGTPPPARKHQTLLSQSHVQVDGEQLARNRLPTDPSPDSHSSTSSDIFVDPNTNASSGGSSSNVLMVPCSPGVGHVGMGHAIKHRFTKALGFMATCTLCQKQVFHRWMKCTDCKYICHKSCAPHVPPSCGLPREYVDEFRHIKEQGGYASLPHVHGAAKGSPLVKKSTLGKPLHQQHGDSSSPSSSCTSSTPSSPALFQQRERELDQAGSSSSANLLPTPSLGKHQPSQFNFPNVTVTSSGGSGGVSLISNEPVPEQFPTAPATANGGLDSLVSSSNGHMSSLIGSQTSNASTAATLTGSLVNSTTTTSTCSFFPRKLSTAGVDKRTPFTSEYTDTHKSNDSDKTVSLSGSASTDSDRTPVRVDSTEDGDSGQWRQNSISLKEWDIPYGDLLLLERIGQGRFGTVHRALWHGDVAVKLLNEDYLQDEHMLETFRSEVANFKNTRHENLVLFMGACMNPPYLAIVTSLCKGNTLYTYIHQRREKFAMNRTLLIAQQIAQGMGYLHAREIIHKDLRTKNIFIENGKVIITDFGLFSSTKLLYCDMGLGVPHNWLCYLAPELIRALQPEKPRGECLEFTPYSDVYSFGTVWYELICGEFTFKDQPAESIIWQVGRGMKQSLANLQSGRDVKDLLMLCWTYEKEHRPQFARLLSLLEHLPKKRLARSPSHPVNLSRSAESVF
chain 2: AYINIAEWTPDQVTDWIKGLDESMKGYLYEFSKQEIGGRALLNIRPYELENLGMLRIGHQEIVLEAVENLRNFHYHLKNDNLQFMALHVATAAKNLHRELARNHAESTKIDTRILHDITRTIATLKPLVGSLERTPFRKQEMYREYCGNVLKCGLELATIAHRDRFALQPVPAIRQSAERLENLANFVIQDISDPMVLQPASLNLVTLKKRESELGFNIESSYNGIHRVTDIKYNSPAHNSGKIEDGDEIVQINYQTVVGWQHRTVLEHLREALPDVVLTVKKRPKHTKMFGQIYMQPYRLPSKKRNMAARWAAQMPSPRAAFLTLDTEQLATGGTGSAVPDPSKSLSSEKREVLTKANPVSSASDSDSSCSDIPTPTDPKLAAREIRLYYPKPRALLQRRNTICGCEYLSLKNSDLVVPSWHERKPGIGSPTNCDPGSPSIRDKSISFGYGLEMAARPTTCIGIAGDTSTDKARRMFHEARKLKQLTEDSQREFLVDRYKPGVSKVVRFDAKEDYVMKNEKFICNVENTILETFEPIPFADEGDEDA

Variants of: B1
Experiment: GST pull-down, immunoblot quantification
Settings: with V5-KSR [Drosophila]; S2 cells; GST-HYP + RRKM co-expressed; captured via GST-HYP; anti-V5 (KSR) blot; parent: 1

ratio to parent | Variant
0.61 | chain 2 D80R
0.97 | chain 2 A66F
0.66 | chain 2 A66F F73R
0.03 | chain 2 K282D
0.87 | chain 2 F73R

The remaining lines, values behind:

Variant | ratio to parent
chain 2 F73R V251R | 0.72
chain 2 D80R K282D | 0.16
chain 2 E249R V251R | 0.08
chain 2 V251R | 0.79

Variants of: B1
Experiment: GST pull-down, immunoblot quantification
Settings: with V5-KSR [Drosophila], S2 cells, GST-HYP, Myc-MEK co-expressed, captured via GST-HYP, anti-V5 (KSR) blot, parent: 1

ratio to parent | Variant
0.93 | chain 2 A40F
0.62 | chain 2 M196E
0.95 | chain 2 T135F
0.9 | chain 2 H263A

The next lines start with the variant.

Variant | ratio to parent
chain 2 L267R | 0.89
chain 2 K109E | 0.92
chain 2 K33D | 0.95
chain 2 R264E | 0.89

Variants of: B1
Experiment: GST pull-down, immunoblot quantification
Settings: with Flag-CNK^2–549 [Drosophila]; S2 cells; Flag-CNK2–549, GST-HYP + RRM (Ha-RASV12, Pyo-RAF, Myc-MEK) co-expressed; captured via GST-HYP; anti-Myc (MEK) blot; parent: 1

Variant | ratio to parent
chain 1 K903D | 0.04
chain 1 Y925D | 0.07
chain 1 M902D | 0.05

Same assay, conditions: with Flag-CNK^2–549 [Drosophila]; S2 cells; Flag-CNK2–549, GST-HYP + RRM (Ha-RASV12, Pyo-RAF, Myc-MEK) co-expressed; captured via GST-HYP; anti-V5 (KSR) blot; parent: 1

Variant | ratio to parent
chain 1 K903D | 0.07
chain 1 Y925D | 0.12
chain 1 M902D | 0.07

Same assay, conditions: with V5-KSR [Drosophila]; S2 cells; Flag-CNK2–549, V5-KSR, Myc-MEK, GST-HYP co-expressed; captured via GST-HYP; anti-V5 (KSR) blot; parent: 1

ratio to parent | Variant
0.81 | chain 2 R98E
0.92 | chain 2 N95E
0.16 | chain 2 Q83E

More lines, now with the values behind:

Variant | ratio to parent
chain 2 R45F | 0.99
chain 2 Y75R | 0.74
chain 2 N81W | 0.07
chain 2 N81E | 0.15

Same assay, conditions: with V5-KSR [Drosophila], S2 cells, GST-HYP, Myc-MEK co-expressed, captured via GST-HYP, anti-V5 (KSR) blot, parent: 1

ratio to parent | Variant
0.49 | chain 2 M196E
0.08 | chain 2 D194K
0.98 | chain 2 S193A

Further lines, the variant ahead of its results:

Variant | ratio to parent
chain 2 V197E | 0.07
chain 2 Q199A | 0.82

Same assay, conditions: with V5-KSR [Drosophila]; S2 cells; GST-HYP + RRKM (Ha-RASV12, Pyo-RAF, V5-KSR, Myc-MEK) co-expressed; captured via GST-HYP; anti-V5 (KSR) blot; parent: 1

ratio to parent | Variant
0.26 | chain 2 M196E
0.04 | chain 2 D194K
1 | chain 2 S193A

Further lines, the variant ahead of its results:

Variant | ratio to parent
chain 2 V197E | 0.03
chain 2 Q199A | 0.73

Same assay, conditions: with V5-KSR [Drosophila]; S2 cells; GST-HYP, Flag-CNK2–549 + RRKM co-expressed; captured via GST-HYP; anti-V5 (KSR) blot; parent: 1

Variant | ratio to parent
chain 2 I122D | 0.76
chain 2 L151D | 0.14
chain 2 I122D L151D | 0.01

Same assay, conditions: with Flag-CNK^2–549 [Drosophila]; S2 cells; Flag-CNK2–549, V5-KSR, Myc-MEK, GST-HYP co-expressed; captured via GST-HYP; anti-Myc (MEK) blot; parent: 1

Variant | ratio to parent
chain 1 R913E | 0.83

Same assay, conditions: with Flag-CNK^2–549 [Drosophila]; S2 cells; Flag-CNK2–549, V5-KSR, Myc-MEK, GST-HYP co-expressed; captured via GST-HYP; anti-V5 (KSR) blot; parent: 1

Variant | ratio to parent
chain 1 R913E | 0.75
